Changes are numbered by the printed parent chain.

Usually Kd stands for a measure of binding affinity in units of concentration. A lower Kd goes with a tighter complex.

What all share (experiment): filter binding
One data set has as its target T1, Grp S32A (Sulfolobus tokodaii strain 7, UniProt F9VNT4 1-150, S32A).
T1 sequence: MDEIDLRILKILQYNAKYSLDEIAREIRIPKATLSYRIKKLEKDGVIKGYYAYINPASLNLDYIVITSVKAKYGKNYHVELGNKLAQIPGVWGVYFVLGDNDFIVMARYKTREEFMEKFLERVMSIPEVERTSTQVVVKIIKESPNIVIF

A further data set concerns the target T2, Grp Y77A (Sulfolobus tokodaii strain 7, UniProt F9VNT4 1-150, Y77A).
T2 sequence: T1 sequence with A32S, Y77A

For data set [1], the target named is T3, Grp (glutamine receptor protein) (Sulfolobus tokodaii strain 7, UniProt F9VNT4 1-150).
T3 sequence: T1 sequence with A32S

Data set [2] has as its target T3, Grp (glutamine receptor protein). The source holds these as a separate data set.

B1: 18-bp grp promoter fragment (dsDNA)
DNA 1: ATATTTTTGTTTATAATA
DNA 2: TATTATAAACAAAAATAT
Consider B1, for which the binding signal with Grp S32A is ~5 fold lower binding than wild type. For the same molecule, in the data set with Grp Y77A, the binding result is given as “no binding”. This molecule also had a Kd in data set [1] of 0.188 ± 0.001 µM.

B2: 111-bp grp promoter (dsDNA)
DNA 1: CGTATCTTCCAAAGATTATAAGCGATTTTTTGTAAGTCTTTTTTTATTATAAGTGTTGATTAGATATAATTCAAAGTAAAGGCTTATATTTTTGTTTATAATATACAGTCT
DNA 2: AGACTGTATATTATAAACAAAAATATAAGCCTTTACTTTGAATTATATCTAATCAACACTTATAATAAAAAAAGACTTACAAAAAATCGCTTATAATCTTTGGAAGATACG
In the case of B2, the binding result in data set [2] is reported as “binds”.

The values are drawn from article PMC2504300.
